Measured values reported in patent publication US7169567B1, “Screening assay utilizing the PTH receptor” (The General Hospital Corporation, priority 1998, dated 2007).
Where no end group is shown, it is not given here.

Legend:
Type in all cases: cell-based
human PTH-1 receptor = biological target: T1, human PTH-1 receptor (Homo sapiens, UniProt Q03431); test: cAMP-stimulating activity in HKRK-B7 cells (LLC-PK1 stably transfected with human PTH-1 receptor), RIA; details: HKRK-B7 cells
T1 construct: expressed in transfected cells; host or cells: HKRK-B7 (LLC-PK1 stably transfected, pCDNA-1-based plasmid)
T1 sequence (Q03431 27-593): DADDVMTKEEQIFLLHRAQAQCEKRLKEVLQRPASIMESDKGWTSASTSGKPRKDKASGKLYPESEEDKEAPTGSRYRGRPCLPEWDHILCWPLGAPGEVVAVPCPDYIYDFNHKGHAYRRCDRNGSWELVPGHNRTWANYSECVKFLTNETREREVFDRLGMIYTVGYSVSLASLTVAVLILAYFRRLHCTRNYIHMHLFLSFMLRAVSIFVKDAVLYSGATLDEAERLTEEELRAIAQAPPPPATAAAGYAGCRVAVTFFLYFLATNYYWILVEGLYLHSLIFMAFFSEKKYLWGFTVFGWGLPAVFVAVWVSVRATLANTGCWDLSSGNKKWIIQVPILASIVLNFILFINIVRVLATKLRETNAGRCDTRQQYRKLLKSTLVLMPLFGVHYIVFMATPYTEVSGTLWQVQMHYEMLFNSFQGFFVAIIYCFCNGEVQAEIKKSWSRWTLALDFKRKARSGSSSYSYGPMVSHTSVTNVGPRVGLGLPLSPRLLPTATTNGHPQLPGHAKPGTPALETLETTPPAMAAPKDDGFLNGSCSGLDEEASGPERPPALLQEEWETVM
Method: FIG. 2. cAMP-stimulating Activity of PTH Fragments in LLC-PK1 Cells. A) Rat PTH(1–34) analog or amino-terminal rPTH fragments were tested for cAMP-stimulating activity in an LLC-P1-derived cell line (HKRK-B7) stably transfected with the human PTH-1 receptor. Cells were treated with peptide at the indicated doses for 60 min at 22° C. Intracellular cAMP was measured by RIA, as described in Experimental Procedures. Shown are combined data (mean±s.e.m.) from 3 separate experiments, each performed in duplicate. B) HKRK-B7 cells, or untransfected LLC-PK1 were treated with rPTH(1–34) or rPTH(1–14), and intracellular cAMP was measured. Shown are data (mean±s.e.m.) from a single representative experiment performed in duplicate.
FIG. 3. Alanine-scan of PTH(1–14). HKRK-B7 cells were treated with 100 mM of one of 14 different rPTH(1–14) analogs, each having a different alanine-substitution at the indicated amino acid position. The resulting cAMP levels were determined as described in Experimental Procedures. Shown are the combined data (mean±s.e.m.) from three separate experiments, each performed in duplicate. The mean (mean±s.e.m.) basal cAMP levels observed in the three experiments was 2.1±0.1 pmole/well, and the maximum response to rPTH(1–34) at 0.1 mM was 254±16 pmole/well.
Cell Culture and DNA Transfection: COS-7 and HKRK-B7 cells were cultured at 37° C. in Dulbecco's modified Eagle's medium (DMEM) supplemented with fetal bovine serum (10%); penicillin G (20 units/ml), streptomycin sulfate (20 μg/ml) and amphotericin B (0.05 μg/ml) in a humidified atmosphere containing 5% CO2. Twenty-four to 16 hours prior to assay, cells in 24-well plates were shifted to a humidified incubator containing 5% CO2 that was set at 33° C. Stock solutions of EGTA/trypsin and antibiotics were from GIBCO; fetal bovine serum was from Hyclone Laboratories (Logan, Utah). Derivation and characterization of the HKRK-B7 cell line by stable transfection of LLC-PK1 cells with a pCDNA-1-based plasmid (In Vitrogen, San Diego, Calif.) encoding the hPTH-1 receptor was described previously (Takasu, H. and Bringhurst, F., Endocrinology, in press (1998)). These cells express PTH-1 receptors at a surface density of about 1×10^6 PTH-binding sites per cell. The HKRK-B7 cells were used for functional assays 24 to 72 hours after the cell monolayer reached confluency.
(§1) Intracellular cyclic AMP: Transfected COS-7 or HKRK-B7 cells were rinsed with 500 ml of binding buffer, (50 mM Tris-HCl, pH 7.7, 100 mM NaCl, 5 mM KCl, 2 mM CaC12, 5% heat-inactivated horse serum, 0.5% heat-inactivated fetal bovine serum) and 200 ml of IBMX buffer (DMEM containing 2 mM IBMX, 1 mg/ml bovine serum albumin, 35 mM Hepes-NaOH, pH 7.4) and […] of binding buffer or binding buffer containing various amounts of peptide were added. The plates were incubated for 60 minutes at room temperature. The buffer was then withdrawn and the cells were frozen on dry ice, treated with 0.5 ml of 50 mM HCl, and refrozen. After the thawing, the lysate was diluted 30-fold in dH20 and an aliquot was analyzed for cAMP content by determined radioimmunoassay using unlabeled cAMP as a standard.
Amino-terminal peptide fragments based on the rat PTH sequence and ranging in length from PTH(1–9) to PTH(1–15) were synthesized and tested for activity in an LLC-PK1-derived cell line called HKRK-B7 which stably expresses high levels (1×10^6 receptors/cell) of the cloned human PTH-1 receptor (Takasu, H. and Bringhurst, F., Endocrinology, in press (1998)).

[1] = biological target: T2, truncated rat PTH-1 receptor (rΔNt) (Rattus norvegicus, UniProt P25961, E586G); test: cAMP response in COS-7 cells transiently transfected with truncated rat PTH-1 receptor (rΔNt); details: secretin(1–27) 1 mM
T2 construct: contains an open reading frame encoding a protein of about 435 amino acid residues; expressed in transfected cells; host or cells: COS-7, transient (DEAE-dextran), pCDNA-1 based plasmid
T2 sequence (P25961 with tags, fused parts or gaps E586G): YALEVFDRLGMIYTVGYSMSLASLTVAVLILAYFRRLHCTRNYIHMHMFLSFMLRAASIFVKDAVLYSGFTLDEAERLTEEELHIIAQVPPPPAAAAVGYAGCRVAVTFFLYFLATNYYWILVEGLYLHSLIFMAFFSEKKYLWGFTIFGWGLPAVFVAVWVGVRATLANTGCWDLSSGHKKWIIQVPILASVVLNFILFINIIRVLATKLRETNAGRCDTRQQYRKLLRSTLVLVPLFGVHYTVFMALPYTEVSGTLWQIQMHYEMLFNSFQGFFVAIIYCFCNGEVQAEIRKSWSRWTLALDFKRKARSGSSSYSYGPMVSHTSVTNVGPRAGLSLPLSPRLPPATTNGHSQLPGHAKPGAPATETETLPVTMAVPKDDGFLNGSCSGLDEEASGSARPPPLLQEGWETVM
Excerpt: FIG. 4. PTH Responses of Intact and Truncated PTH-1 Receptors in COS-7 Cells. Shown at the top are schematics of the intact (A) and truncated (B) rat PTH-1 receptors used for transient transfection of COS-7 cells, and subsequent cAMP response assays. The conserved extracellular cysteine residues are depicted as open circles and numbered according to sequence position, and the nine amino acids of the epitope tag (HA) in rWT-HA are shaded. The tics at residue 26 and 181 indicate the endpoints of the deletion in rΔNt. Based on the predicted signal peptide cleavage site at Ala-22, residues 23–25 in rΔNt are joined to residue 182. The cAMP responses of COS-7 cells expressing the intact receptor (C) and rΔNt (D) to rPTH(1–34) (J) or rPTH(1–14) (C) are also shown. The graphs show combined data (mean±s.e.m.) from five separate experiments, each performed in duplicate. […]
FIG. 6. Specificity of the Truncated Ligand and PTH Receptor. COS-7 cells transiently transfected with either rWT-HA (A), rΔNt (B), or the intact rat secretin receptor (C), were treated with the indicated peptides for 60 min at 22° C., and the resulting intracellular cAMP levels were quantified by RIA. Concentration of peptides present during the incubations were: rPTH(1–34), 0.1 mM; rPTH(1–14) 100 mM; secretin(1–27). […] Shown are data (mean±s.e.m.) from one experiment performed in duplicate, and this was repeated twice more with equivalent results.
For studies with the intact and truncated rat PTH-1 receptors, transient transfections of COS-7 cells were performed using DEAE-dextran as described previously (Bergwitz, C., et al., J. Biol. Chem. 272:28861–28868)). The construction and initial characterization of the pCDNA-1 based plasmids encodin either the intact or truncated rat PTH-1 receptor has been described previously (Lee, C., et al., Endocrinology 135(4):1488–1495)). […] The truncated rat PTH-1 receptor (rΔNt) is deleted for exons E1 through exon G (residues 26 to 181). Assuming that signal peptidase cleavage occurs between Ala-22 and Tyr-23 (Nielsen, H., et al., Protein Engineering 10:1–6 (1997)), rΔNt is predicted to have for its N-terminus residues Dautzenberg, F., et al., Proc. Natl. Acad. Sci. 95:4941–4946 (1998); Holtmann, M., et al., J. Biol. Chem. 270:14394–14398 (1995); DeAlmeida, V. and Mayo, K., Mol. Endo. 12:750–765 (1998)) joined to Glu-182 (FIG. 3B). COS-7 cells were transfected in 24-well plates when the cells were 85 to 95% of confluency, using 200 ng of plasmid DNA that was purified by cesium chloride/ethidium bromide gradient centrifugation for each well. Assays were conducted 72 to 96 hours after transfection. Under these conditions about ˜20% of the COS-7 cells become transfected and express about 5×10^6 surface PTH receptors per cell (Bergwitz, C., et al., J. Biol. Chem. 272:28861–28868)).
as §1
Experiments utilized COS-7 cells transfected with either the intact rat PTH-1 receptor (rWT-HA, FIG. 4A) or a truncated rat PTH-1 receptor with most of the amino-terminal extracellular domain deleted (rΔNt, FIG. 4B).

rat secretin receptor = biological target: T3, rat secretin receptor (Rattus norvegicus, UniProt P23811); test: cAMP response in COS-7 cells transfected with the rat secretin receptor; details: secretin(1–27) 1 mM; COS-7 cells transfected with the secretin receptor
T3 construct: expressed in transfected cells; host or cells: COS-7, transient
T3 sequence (P23811 26-449): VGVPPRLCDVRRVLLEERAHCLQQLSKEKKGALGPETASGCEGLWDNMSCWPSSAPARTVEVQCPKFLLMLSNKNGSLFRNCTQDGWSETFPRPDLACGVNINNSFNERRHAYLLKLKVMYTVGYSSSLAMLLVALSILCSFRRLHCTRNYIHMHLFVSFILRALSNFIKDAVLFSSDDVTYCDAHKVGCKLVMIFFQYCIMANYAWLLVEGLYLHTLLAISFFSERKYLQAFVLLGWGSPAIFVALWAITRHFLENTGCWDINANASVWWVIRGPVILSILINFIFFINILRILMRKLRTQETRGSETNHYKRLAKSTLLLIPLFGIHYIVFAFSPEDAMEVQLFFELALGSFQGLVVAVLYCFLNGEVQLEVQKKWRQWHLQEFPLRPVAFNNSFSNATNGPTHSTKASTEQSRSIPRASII
Method: FIG. 6. Specificity of the Truncated Ligand and PTH Receptor. COS-7 cells transiently transfected with either rWT-HA (A), rΔNt (B), or the intact rat secretin receptor (C), were treated with the indicated peptides for 60 min at 22° C., and the resulting intracellular cAMP levels were quantified by RIA. […] 1 mM and secretin(1–13), 100 mM. Shown are data (mean±s.e.m.) from one experiment performed in duplicate, and this was repeated twice more with equivalent results.
as §1
In order to test whether PTH(1–14) and rΔNt retained the appropriate recognition specificity for the corresponding parent ligand, cross-reactivity experiments were done using secretin ligands and the cloned rat secretin receptor. […] Cells expressing rΔNt responded to PTH(1–34) and PTH(1–14) but not to secretin(1–27) (1 mM) or secretin(1–13) ([…]) (FIG. 5B). Thus, the recognition specificity of PTH(1–14) and rΔNt appear to replicate that of the intact parent molecules. No evidence for relaxed specificity was detected in these studies (FIG. 6).

## PH(1–13): Amino-terminal peptide fragment based on the rat PTH sequence, residues 1–13, C-terminally amidated (AVSEIQLMHNLGK-NH2)
Human PTH-1 receptor
  increase in cAMP accumulation (in words): little or no increase

## PTH(1–15): Amino-terminal peptide fragment based on the rat PTH sequence, residues 1–15, C-terminally amidated (AVSEIQLMHNLGKHL-NH2)
Human PTH-1 receptor
  doses required for cAMP activation compared with the dose required for PTH(1–34): five to six orders of magnitude higher
Human PTH-1 receptor; 60 min at 22° C.
  increase in intracellular cAMP levels relative to the basal cAMP level: about 20 fold

## secretin(1–13): truncated secretin ligand used in cross-reactivity experiments (HSDGTFTSELSRL; not fully specified (C-terminus); ends and bridges not checked; UniProt P09683 28-40, looked up, fragment)
[1]
  cAMP response of cells expressing rΔNt (in words): not

## secretin(1–27): secretin ligand used in cross-reactivity experiments
Rat secretin receptor
  increase in cAMP levels: 50 fold
[1]
  cAMP response of cells expressing rΔNt (in words): not
